Kd data for two molecules are collected here from patent US20110150896A1 (published 2011).

In general, Kd refers to a measure of binding affinity in units of concentration.

The test addresses full-length PcrV protein (recombinant, 1-294) (in the biotin-labeled form: PEO-maleimide activated biotin on the inserted cysteine). The experiment in a line: SPR. Background: Surface plasmon resonance follows binding to a sensor surface in real time, without labels.

B1: 2A4 (antibody, V domains shown)
VH: DVQLQESGPGLVKPSQSLSLTCTVTGYSITSDYAWNWIRQFPGNKLEWMGYITYNGDTSYNPSLKSRISIARDTSKNQFFLQLNSVTTEDTATYSCAGSRNYYGAWFAYWGQGTLVTVSA
VL: DIVMTQSHKFMSTSIGDRVSINYKASQYVGTTVAWYQQKSGHSPKLLIYRASTRHTGVPDRFTGSGSGTDFTLNISNVQSEDLADYFCQQYCSSPLTFGAGTYLEVKR
Turning to B1, the Kd was 0.35 nM.

B2: 1F3 (antibody, V domains shown)
VH: QVQLQQPGAELVKPGASVKLSCKASGYSFTSYWMHWVKQRPGQGLEWIGEINPSNGRTNYNEKFNTKATLTVDTSSSTAYMQLSSLTSEDSAVYYCVLYGNYVVYYTMDYWGQGTSVTVSS
VL: QIVLTQSPTIMSASLGEEITLTCSASTSVSYMEWYQQKSGTSPKILIYTTSKLASGVPSRFSGSGSGTFYSLTISSVEAEDAADYYCHQWRNYPFTFGSGTKLEIKR
For the molecule B2, the Kd turned out to be 0.37 nM.
